Laboratory results taken from the RNAGym collection of RNA variant scans (doi:10.1073/pnas.2313332121).

B1: TPR t1 (parent)
chain: GACCAAUCUGCCCUCAGAGCUCGAGAACAUCUUCGGAUGCAGAGGAGGCAGGCUUCGGUGGCGCGAUAGCGCCAACGUCCUCAACCUCCAAUGCAUCCCACCACAUGAUGAUGCCUGAAGAGCCUUGGUUUUUUG

Variants of: B1
Test: polymerase ribozyme fitness, log enrichment relative to wild type (log ratio); higher = more active; in vitro selection for triplet polymerase activity
Procedure, shortened: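 Streptavidin-bead capture of gel-excised extended constructs, followed by RT-PCR, closed a single triplicate in vitro selection round. That round began by annealing PCR-built, transcribed mutant libraries of each subunit of a heterodimeric triplet polymerase ribozyme with a biotinylated primer, the partner subunit and triplets, then incubating them frozen at −7 °C. After Illumina sequencing of inputs and outputs, genotypes needed ≥10 input reads and ≥1 read per output. Fitness is the base-2 logarithm of genotype enrichment over wild-type enrichment, using inverse-variance-weighted replicate averages.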

Variant | polymerase ribozyme fitness (log ratio)
C70A G120A | -0.62
G63U C114A U125A | -4.22
C70A A84U | -0.795
C64U C72U | -0.106
A66G C123G U133A | 1.16
G63U A108G | -3.13
G63C C86U U112A | 0.23
C64U C80U | 0.0248
G63U A90C C101A | -4.63
G63U U92G G93C C98G A121G | -5.9
C70G C79A A111C A119C | -8.17
A66C U92A | -6.51
C64U C124G | 1.78
G65C G69U C114G G117C C124U G128C | -5.15
A66U G93A A121G | 0.349
G69C C76U | -4.07
C64U C89U G117C | -4.79
G69A A95C G113A | -3.61
C70G C123A | -2.21
A68G U132A | -3.13
A68G U129G | -4.32

Variant | polymerase ribozyme fitness (log ratio)
A68G U129A | -4.01
G69U A91U C99U U109G | -3.63
C70A C86A | -2.39
G63C C123A G127A G135C | -0.151
A68U U112A | -5.84
C64U C89G A91U C97U C115U | -2.63
C64G U81G C101A G113A | -6.96
C70A C85U G113A | -3.33
G69U C102G | -2.76
C64U C88U U106A U130A | -0.803
G69A G93A G113C | -6.22
G69U U78G C79A U116A U129G | -5.04
C70A C86G C102A | -4.88
C64U C73U | 0.562
G69A G110C | -6.02
G69A G110A | -3.77
G69A G120C | -0.596
G69A G120A | -1.48
G69C U81C C88U U106C | -2.4
C64U C82U | -2.09
G69U C88A G127C U131A | -2.72

Variant | polymerase ribozyme fitness (log ratio)
C70G C115G | -3.68
A66C A74C A111C | -2.24
G69C U96G U106C | -3.19
G63C A121G | 0.727
G63C A121C | 0.84
G69A U129G | -3.2
A68G U81A C99U A111U C124U | -5.02
G69U C85A | -1.08
G69C A83U C99A C102A | -6.91
G69C U78C U106A | -2.46
G65C C101U | -4.71
C64U A95G G117C | -4.22
G63U G93A | -1.31
G63U A111U | -4.61
C70G C94U | -3
G69U G71U | -0.811
U67G | -7.14
U67C | -2.8
U67A | -5.73
G69U C115G | -0.0637
G69U A91C C114A C124U U126C | -2.19

Variant | polymerase ribozyme fitness (log ratio)
C64U C88U C97U | -0.745
C64U G113A | -1.32
G63C A75U U87A | -0.774
C64U A74G U78A | -2.93
A68G U78C | -3.07
C70A U130G | -2.49
C70A G117U | -4.09
G63C C86A A118G | -2.3
A66U G128A | -3.15
C70A G110A U133A | -3.64
G63C C114U | -2.19
G63C C114A | -2.44
A66G C72U G107A C123A | -6.86
G69A U81A C124A | -1.99
G65U G120U | -5.78
G69A C89U C123G | -2.85
G69U C76G U133A | -2.07
G63A U125A | -1.21
C70A C104A | -3.24
G69U C82G C89A | -1.32
G69A C85A U106A U125A | -5.49
